Among the data in publication PMC7897226 are fold β-galactosidase activity over controls and fold β-galactosidase activity over control values, retold here.

The target of experiment [1] is CheY2-T25 (P. aeruginosa). Nature of the experiment: two-hybrid.
Experiment [2] has as its target T25-CheY2 (P. aeruginosa). The experiment is described as follows: two-hybrid.

T18-CheA2 (enzyme) showed a fold β-galactosidase activity over controls in experiment [1] of 34 fold.

B1: CheD_(1–200)-T18 (natural protein)
chain: MNLQAREGAPLNRYYDPYFACDAVKLLPGEYFASGEDLVIVTVLGSCVSVCLRDPLNGIAGMNHFMLPERGLGGDPASPSARYGSHAMELLINRMLALGASRERLQAKVFGGGSVLRQISAAIGQRNVEFTLDYLATERIPLLASDVLEAFPRKIYFFPRNGRVLVKSLVELKNDTVLQRERDYRRRIDRNADGGPIDLF
As to B1, in experiment [2], the fold β-galactosidase activity over control was 15 fold.
